The source of these data is the supplement of paper PMC7877785.

± gives the uncertainty stated by the source.

The nature of the series: self-splicing fitness, log relative to wild type (ln ratio); higher = more splicing; Tetrahymena group I intron in knt gene, E. coli kanamycin selection, DiMSum; sequences stand for … in CUCUCU…GGAGGGAAAAGUUAUCAGGCAUGCACCUGGUAGCUAGUCUUUAAACCAAUAGAUUGCAUCGGUUUAAAAGGCAAGACCGUCAAAUUGCGGGAAAGGGGUCAACAGCCGUUCAGUACCAAGUCUCAGGGGAAACUUUGAGAUGGCCUUGCAAAGGGUAUGGUAAUAAGCUGACGGACAUGGUCCUAACCACGCAGCCAAGUCCUAAGUCAACAGAUCUUCUGUUGAUAUGGAUGCAGUUCACAGACUAAAUGUCGGUCGGGGAAGAUGUAUUCUUCUCAUAAGAUAUAGUCGGACCUCUCCUUAAUGGGAGCUAGCGGAUGAAGUGAUGCAACACUGGAGCCGCUGGGAACUAAUUUGUAUGCGAAAGUAUAUUGAUUAGUUUUGGAGUACUCGUGGUCG
Summed up: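 DiMSum derived fitness as the error-weighted combination of fold changes across replicates, kanamycin versus no kanamycin, normalised to wild type. E. coli BL21(DE3) held the library, which randomised all eight P1ex-region intron nucleotides within the knt kanamycin-resistance gene on pET-22b(+). Six replicate transformations grew overnight at 37°C or 30°C on LB agar with or without 25 μg/mL kanamycin, also containing 100 μg/mL carbenicillin, 50 μM IPTG and 0.2% rhamnose, and pooled colonies were amplicon-sequenced on an Illumina HiSeq 2500.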

In the case of CACUAGCAAUAUUACGGUUG, the “self-splicing fitness (ln)” value runs as follows: (30 °C) -1.98 ± 0.087; (37 °C) -1.38 ± 0.098.
On to CAGAAGCAAUAUUACGAUGG, for which the “self-splicing fitness (ln)” value runs as follows: (30 °C) -0.534 ± 0.064; (37 °C) -0.254 ± 0.078.
In the case of UAGUAGCAAUAUUACGGAAC, the “self-splicing fitness (ln)” value runs as follows: (30 °C) -2.97 ± 0.3; (37 °C) -3.42 ± 0.42.
On to CCUGAGCAAUAUUACGCAUC, for which the “self-splicing fitness (ln)” value (30 °C) is -3.39 ± 0.44.
In the case of GUAUAGCAAUAUUACGAACU, the “self-splicing fitness (ln)” value (30 °C) was -1.75 ± 0.23 and the “self-splicing fitness (ln)” value (37 °C) came to 0.477 ± 0.24.
On the same counts, the results for ACCCAGCAAUAUUACGGGGC are -4.5 ± 0.19 and -2.73 ± 0.14.
The corresponding values for UAUCAGCAAUAUUACGGCGC are -2.69 ± 0.18 and -1.12 ± 0.21.
On the same counts, the results for GGUAAGCAAUAUUACGUCUC are -1.04 ± 0.13 and -1.27 ± 0.16.
As to CGUCAGCAAUAUUACGCAUU, the “self-splicing fitness (ln)” value (30 °C) was -3.62 ± 0.16 and the “self-splicing fitness (ln)” value (37 °C) is -2.31 ± 0.16.
Take GUCAAGCAAUAUUACGAGUG: the “self-splicing fitness (ln)” value (30 °C) was -3.56 ± 0.17 and the “self-splicing fitness (ln)” value (37 °C) is -1.69 ± 0.16.
Turning to CUCGAGCAAUAUUACGACCU, the “self-splicing fitness (ln)” value by setting is: (30 °C) -3.42 ± 0.25; (37 °C) -3.53 ± 0.37.
On the same counts, the results for UCAAAGCAAUAUUACGAACA are -1.41 ± 0.18 and -0.524 ± 0.15.
Regarding AUUAAGCAAUAUUACGUAAU, the “self-splicing fitness (ln)” value (30 °C) was -1.66 ± 0.11 and the “self-splicing fitness (ln)” value (37 °C) was -0.745 ± 0.14.
On the same counts, the results for AUCUAGCAAUAUUACGCGGC are -3.15 ± 0.38 and -2.92 ± 0.33.
On the same counts, the results for GCGAAGCAAUAUUACGCUUU are -2.27 ± 0.19 and -2.03 ± 0.4.
On the same counts, the results for UCCAAGCAAUAUUACGGACU are -3.5 ± 0.21 and -2.28 ± 0.18.
On to UGCGAGCAAUAUUACGUCGC, for which the “self-splicing fitness (ln)” value is -1.88 ± 0.15 (30 °C) and -2.32 ± 0.23 (37 °C).
The corresponding values for AGAUAGCAAUAUUACGUCUC are -3.01 ± 0.21 and -3.05 ± 0.4.
On to UCUAAGCAAUAUUACGAGCC, for which the “self-splicing fitness (ln)” value (30 °C) is -2.34 ± 0.34.
Take ACACAGCAAUAUUACGUUGG: the “self-splicing fitness (ln)” value (30 °C) is -3 ± 0.089 and the “self-splicing fitness (ln)” value (37 °C) is -1.2 ± 0.081.
The corresponding values for CGAGAGCAAUAUUACGCGCA are -3.56 ± 0.48 and -1.38 ± 0.26.
The corresponding values for CCGCAGCAAUAUUACGCGGG are -4.07 ± 0.14 and -3.74 ± 0.12.
The corresponding values for AGUAAGCAAUAUUACGUAUU are -2.89 ± 0.12 and -3.05 ± 0.19.
As to UCACAGCAAUAUUACGCGCG, the “self-splicing fitness (ln)” value is -0.645 ± 0.089 (30 °C) and -0.233 ± 0.11 (37 °C).
For the sequence UUGGAGCAAUAUUACGAAGU, the “self-splicing fitness (ln)” value reads like this: (30 °C) -3.34 ± 0.37; (37 °C) 0.521 ± 0.31.
For CAAGAGCAAUAUUACGAUGG, the “self-splicing fitness (ln)” value is -1.1 ± 0.091 (30 °C) and -0.943 ± 0.077 (37 °C).
For the sequence AACAAGCAAUAUUACGACAU, the “self-splicing fitness (ln)” value runs as follows: (30 °C) -0.261 ± 0.01; (37 °C) 0.0604 ± 0.032.
As for UUGAAGCAAUAUUACGGAGC, the “self-splicing fitness (ln)” value runs as follows: (30 °C) -2.81 ± 0.21; (37 °C) -2.5 ± 0.41.
For GUUAAGCAAUAUUACGCAAU, where the note is “30 °C”, the “self-splicing fitness (ln)” value is -3.09 ± 0.44.
On to GGGCAGCAAUAUUACGGAUA, for which the “self-splicing fitness (ln)” value was -2.63 ± 0.17 (30 °C) and -1.8 ± 0.13 (37 °C).
On the same counts, the results for UUCAAGCAAUAUUACGUUGA are -2.77 ± 0.21 and -2.7 ± 0.21.
The corresponding values for GAAGAGCAAUAUUACGGGGU are -3.09 ± 0.34 and -1.83 ± 0.28.
With AGAGAGCAAUAUUACGUACU, the “self-splicing fitness (ln)” value is -1.2 ± 0.13 (30 °C) and -1 ± 0.15 (37 °C).
The corresponding values for AUACAGCAAUAUUACGUCCU are -0.382 ± 0.073 and 1.06 ± 0.096.
